These results are taken from patent US20200018762.

Data set [1] has as its target purified H4 protein (Example 3), P62805.
The target of data set [2] is purified histone H3 (Example 2), P68431.
Data set [3] has as its target T1, biotinylated H4-derived unphosphorylated peptide TVTAMDVVYALKRQGRT
T1 chain: TVTAMDVVYALKRQGRT

Positions count from the first letter of the chain named. Numbers in names are those of the source.

B1: purified constitutively active E346K-Ack1 (HA-tagged) (protein)
chain: MQPEEGTGWLLELLSEVQLQQYFLRLRDDLNVTRLSHFEYVKNEDLEKIGMGRPGQRRLWEAVKRRKALCKRKSWMSKVFSGKRLEAEFPPHHSQSTFRKTSPAPGGPAGEGPLQSLTCLIGEKDLRLLEKLGDGSFGVVRRGEWDAPSGKTVSVAVKCLKPDVLSQPEAMDDFIREVNAMHSLDHRNLIRLYGVVLTPPMKMVTELAPLGSLLDRLRKHQGHFLLGTLSRYAVQVAEGMGYLESKRFIHRDLAARNLLLATRDLVKIGDFGLMRALPQNDDHYVMQEHRKVPFAWCAPESLKTRTFSHASDTWMFGVTLWEMFTYGQEPWIGLNGSQILHKIDKKGERLPRPEDCPQDIYNVMVQCWAHKPEDRPTFVALRDFLLEAQPTDMRALQDFEEPDKLHIQMNDVITVIEGRAENYWWRGQNTRTLCVGPFPRNVVTSVAGLSAQDISQPLQNSFIHTGHGDSDPRHCWGFPDRIDELYLGNPMDPPDLLSVELSTSRPPQHLGGVKKPTYDPVSEDQDPLSSDFKRLGLRKPGLPRGLWLAKPSARVPGTKASRGSGAEVTLIDFGEEPVVPALRPCAPSLAQLAMDACSLLDETPPQSPTRALPRPLHPTPVVDWDARPLPPPPAYDDVAQDEDDFEICSINSTLVGAGVPAGPSQGQTNYAFVPEQARPPPPLEDNLFLPPQGGGKPPSSAQTAEIFQALQQECMRQLQAPAGSPAPSPSPGGDDKPQVPPRVPIPPRPTRPHVQLSPAPPGEEETSQWPGPASPPRVPPREPLSPQGSRTPSPLVPPGSSPLPPRLSSSPGKTMPTTQSFASDPKYATPQVIQAPGPRAGPCILPIVRDGKKVSSTHYYLLPERPSYLERYQRFLREAQSPEEPTPLPVPLLLPPPSTPAPAAPTATVRPMPQAALDPKANFSTNNSNPGARPPPPRATARLPQRGCPGDGPEAGRPADKIQMAMVHGVTTEECQAALQCHGWSVQRAAQYLKVEQLFGLGLRPRGECHKVLEMFDWNLEQAGCHLLGSWGPAHHKR
With B1, the “in vitro kinase assay, immunoblot with pTyr51-H4 antibody” value in data set [1] is “When purified E346K-Ack1 and H4 were incubated, H4 was Tyr51-phosphorylated, however, Ack1 inhibitor AIM-100 abrogated H4 pTyr51-phosphorylation (FIG. 26B)”.

B2: purified Ack1 (Examples 2 and 5) (protein)
chain: B1 chain with K346E
Consider B2, for which the “in vitro kinase reaction, immunoblot with pTyr99-H3 antibody” value in data set [2] is given as “Ack1 directly phosphorylates histone H3 at Tyr99 (FIG. 23)”. For the same protein, the “in vitro kinase assay on immobilized peptide, ELISA with pY88-H4 antibodies” value in data set [3] is “Incubation of H4 peptide with WEE1 and Ack1 protein resulted in robust H4 Tyr88-phosphorylation”.
